Source: article PMC4130184

Target: T1, PRIN2;CSP41b (Arabidopsis thaliana?;Arabidopsis thaliana?) (UniProt Q9XIK0+Q9SA52)
T1 sequence 1: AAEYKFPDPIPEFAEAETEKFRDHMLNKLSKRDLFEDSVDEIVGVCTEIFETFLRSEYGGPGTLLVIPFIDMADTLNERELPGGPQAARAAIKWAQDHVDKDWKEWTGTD
T1 sequence 2: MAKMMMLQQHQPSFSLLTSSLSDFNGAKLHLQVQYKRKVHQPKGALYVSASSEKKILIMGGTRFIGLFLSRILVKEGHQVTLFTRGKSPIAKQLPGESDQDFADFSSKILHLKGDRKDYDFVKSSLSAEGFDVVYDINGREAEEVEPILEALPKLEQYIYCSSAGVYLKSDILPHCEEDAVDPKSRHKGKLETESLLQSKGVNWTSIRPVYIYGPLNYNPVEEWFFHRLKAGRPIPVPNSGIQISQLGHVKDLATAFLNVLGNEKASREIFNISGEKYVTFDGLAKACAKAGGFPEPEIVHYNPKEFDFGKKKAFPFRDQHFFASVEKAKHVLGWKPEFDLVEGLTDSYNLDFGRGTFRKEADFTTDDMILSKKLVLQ
Test: EMSA
Details: EMSA: 10 mM Tris-HCl, 25 mM KCl, 1 mM DTT (1x from 10x stock; pH not stated), 1 ug poly(dI-dC) per 25 uL, 2.5% glycerol, 0.05% Triton X-100, 5 mM MgCl2, 10 mM …

ACCCACTACGGATCGTATTCAATCGTATTCATATGATTTGGAAAAAATATTCCTAGAGCAATTCTATTTCTATGTATGTGGATTCGCTTCTAATTTATTTCATCGATTACAAAAAATTTTTTATGAATCTAAACTAAAAGGATCTTATCCATTTTACATTGGTTGACATGGCTATATAAGTCATGTTATACTGTTTC (double strand) [psbA promoter probe (197/198 bp)]
binding: binds
